Reference: patent US20260042806A1 (OXFORD NANOPORE TECHNOLOGIES, published 2026)
No end group written: not given here. *: point of attachment. 4‑(fluorosulfonyl)phenylacetyl = O=C(Cc1ccc(S(=O)(=O)F)cc1)*; Benzoyl(3-SO2F) = O=C(c1cccc(S(=O)(=O)F)c1)*; Benzoyl(4-SO2F) = O=C(c1ccc(S(=O)(=O)F)cc1)*

T1: CsgG (preformed nonameric CsgG pore complexes of Example 2) (Escherichia coli, UniProt P0AEA2 16-277)
T1 construct: Tyr196 fits that numbering; also called CsgG nonameric channel
T1 sequence: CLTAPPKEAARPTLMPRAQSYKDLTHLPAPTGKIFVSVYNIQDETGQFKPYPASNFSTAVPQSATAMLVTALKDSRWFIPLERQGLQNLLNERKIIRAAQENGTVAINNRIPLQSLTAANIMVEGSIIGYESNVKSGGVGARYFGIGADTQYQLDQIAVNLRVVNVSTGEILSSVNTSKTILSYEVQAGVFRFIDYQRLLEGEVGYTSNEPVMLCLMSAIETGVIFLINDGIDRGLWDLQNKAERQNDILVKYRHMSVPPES

T2: CsgG-F56Q pore (ONLP20134) (Escherichia coli, UniProt P0AEA2 16-277)
T2 construct: Oligomeric pore purified from E. coli; also called CsgG-WT-F56Q; CsgG-only pore control
T2 sequence: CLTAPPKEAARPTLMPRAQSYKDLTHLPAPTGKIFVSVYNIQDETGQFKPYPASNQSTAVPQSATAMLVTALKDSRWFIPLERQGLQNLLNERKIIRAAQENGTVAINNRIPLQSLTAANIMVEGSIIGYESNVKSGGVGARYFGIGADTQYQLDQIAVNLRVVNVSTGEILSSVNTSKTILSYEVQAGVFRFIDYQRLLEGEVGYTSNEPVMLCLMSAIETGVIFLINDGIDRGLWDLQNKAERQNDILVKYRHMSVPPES


Columns and labels:
[1] = molecular target: T1, CsgG (preformed nonameric CsgG pore …); assay: SDS-PAGE time course of the reaction with CsgG
[2] = molecular target: T1, CsgG (preformed nonameric CsgG pore …); assay: insertion of complexes into bilayers; told of the covalent SuTide complexes as a group
[3] = molecular target: T2, CsgG-F56Q pore (ONLP20134); assay: single-channel current traces, MinION flow cell, -180 mV

Binder | first order rate constant k1 of covalent reaction [1] | halftime (t1/2) of covalent complex formation [1] | fold increase in the proportion of bilayer embedded stable complexes over the non-covalent complex [2] | binding result [3]
GTMTFQFRNPNFGGNPNNGAFLLNSAQAQK(Benzoyl(4-SO2F))-NH2 (N-terminus assumed; SMILES CSCC[C@H](NC(=O)[C@@H](NC(=O)CN)[C@@H](C)O)C(=O)N[C@H](C(=O)N[C@@H](Cc1ccccc1)C(=O)N[C@@H](CCC(N)=O)C(=O)N[C@@H](Cc1ccccc1)C(=O)N[C@@H](CCCNC(=N)N)C(=O)N[C@@H](CC(N)=O)C(=O)N1CCC[C@H]1C(=O)N[C@@H](CC(N)=O)C(=O)N[C@@H](Cc1ccccc1)C(=O)NCC(=O)NCC(=O)N[C@@H](CC(N)=O)C(=O)N1CCC[C@H]1C(=O)N[C@@H](CC(N)=O)C(=O)N[C@@H](CC(N)=O)C(=O)NCC(=O)N[C@@H](C)C(=O)N[C@@H](Cc1ccccc1)C(=O)N[C@@H](CC(C)C)C(=O)N[C@@H](CC(C)C)C(=O)N[C@@H](CC(N)=O)C(=O)N[C@@H](CO)C(=O)N[C@@H](C)C(=O)N[C@@H](CCC(N)=O)C(=O)N[C@@H](C)C(=O)N[C@@H](CCC(N)=O)C(=O)N[C@@H](CCCCNC(=O)c1ccc(S(=O)(=O)F)cc1)C(N)=O)[C@@H](C)O, Synthetic peptide: WT CsgF(1-29) with a modified Lys at position 30; also called 4-SO2F-CsgF; CsgF-WT-K30-PARA-SO2F-del(S31-F119)) [CsgF-K30-PARA-SO2F-del(S31-F119)] | ~0.46 h⁻¹ | 1.5 h | 2 fold | 
GTMTFQFRNPNFGGNPNNGAFLLNSAQAQK(Benzoyl(3-SO2F))-NH2 (N-terminus assumed; SMILES CSCC[C@H](NC(=O)[C@@H](NC(=O)CN)[C@@H](C)O)C(=O)N[C@H](C(=O)N[C@@H](Cc1ccccc1)C(=O)N[C@@H](CCC(N)=O)C(=O)N[C@@H](Cc1ccccc1)C(=O)N[C@@H](CCCNC(=N)N)C(=O)N[C@@H](CC(N)=O)C(=O)N1CCC[C@H]1C(=O)N[C@@H](CC(N)=O)C(=O)N[C@@H](Cc1ccccc1)C(=O)NCC(=O)NCC(=O)N[C@@H](CC(N)=O)C(=O)N1CCC[C@H]1C(=O)N[C@@H](CC(N)=O)C(=O)N[C@@H](CC(N)=O)C(=O)NCC(=O)N[C@@H](C)C(=O)N[C@@H](Cc1ccccc1)C(=O)N[C@@H](CC(C)C)C(=O)N[C@@H](CC(C)C)C(=O)N[C@@H](CC(N)=O)C(=O)N[C@@H](CO)C(=O)N[C@@H](C)C(=O)N[C@@H](CCC(N)=O)C(=O)N[C@@H](C)C(=O)N[C@@H](CCC(N)=O)C(=O)N[C@@H](CCCCNC(=O)c1cccc(S(=O)(=O)F)c1)C(N)=O)[C@@H](C)O, Synthetic peptide: WT CsgF(1-29) with a modified Lys at position 30; also called 3-SO2F-CsgF; CsgF-WT-K30-META-SO2F-del(S31-F119)) [CsgF-K30-META-SO2F-del(S31-F119)] | ~1 h⁻¹ | 0.66 h | 2 fold | 
GTMTFQFRNPNFGGNPNNGAFLLNSAQAQN (Chemically synthesised peptide; In complex ONLP20783 with CsgG-F56Q; also called CsgF-WT-del(S31-F119); del(S31-F119) CsgF peptide) [CsgF-del(S31-F119)] |  |  |  | binds
GTMTFQFRNPNFGGNPNNGAFLLNSAQAQK(4‑(fluorosulfonyl)phenylacetyl)-NH2 (N-terminus assumed; SMILES CSCC[C@H](NC(=O)[C@@H](NC(=O)CN)[C@@H](C)O)C(=O)N[C@H](C(=O)N[C@@H](Cc1ccccc1)C(=O)N[C@@H](CCC(N)=O)C(=O)N[C@@H](Cc1ccccc1)C(=O)N[C@@H](CCCNC(=N)N)C(=O)N[C@@H](CC(N)=O)C(=O)N1CCC[C@H]1C(=O)N[C@@H](CC(N)=O)C(=O)N[C@@H](Cc1ccccc1)C(=O)NCC(=O)NCC(=O)N[C@@H](CC(N)=O)C(=O)N1CCC[C@H]1C(=O)N[C@@H](CC(N)=O)C(=O)N[C@@H](CC(N)=O)C(=O)NCC(=O)N[C@@H](C)C(=O)N[C@@H](Cc1ccccc1)C(=O)N[C@@H](CC(C)C)C(=O)N[C@@H](CC(C)C)C(=O)N[C@@H](CC(N)=O)C(=O)N[C@@H](CO)C(=O)N[C@@H](C)C(=O)N[C@@H](CCC(N)=O)C(=O)N[C@@H](C)C(=O)N[C@@H](CCC(N)=O)C(=O)N[C@@H](CCCCNC(=O)Cc1ccc(S(=O)(=O)F)cc1)C(N)=O)[C@@H](C)O, Synthetic peptide: WT CsgF(1-29) with a modified Lys at position 30; also called 4-CH2SO2F-CsgF; CsgF-WT-K30-CH2PH-p-SO2F-del(S31-F119)) [CsgF-K30-CH2-PH-P-SO2F-del(S31-F119)] | ~0.17 h⁻¹ | 4 h | 2 fold | 
